Experiment [1] has as its system human AsPC-1 pancreas tumor. The experiment in a line: AsPC-1 pancreas tumor xenograft model. Particulars: 200 μg ip. In kind it is in vivo, nude mice. How it is done: The NEO-101 antibody was tested for anti-tumor activity using the human AsPC-1 pancreas tumor xenograft model in nude mice. In this activity model, mice were implanted with human AsPC-1 tumor cells and allowed to establish to approximately 20-50 mm^3, measurable with a caliper in approximately 4-6 days. The treatment regimen included intraperitoneal injection of 200 μg of research-grade NEO-101 or a negative control human IgG (Pierce), followed on the next day with an intraperitoneal injection of IL-2-activated normal human PBMCs (approximately 2×10^7 per mouse per injection). Two cycles of treatment were administered such that antibody injections occurred on days 5 and 8, and PBMC injections occurred on days 6 and 9 in this study. Throughout the study, the tumor growth was monitored twice weekly by measurement with a caliper. Tumor volume was calculated using the equation: […], in units of cubic millimeters. If a tumor reached approximately 800 mm^3, or became ulcerated or necrotic, the mouse was humanely sacrificed. The study was terminated on study day 35.
This anti-tumor activity study was repeated in a separate study using the same AsPC-1 pancreas tumor model and the 200 μg dose of NEO-101 antibody. However, in the second study, four cycles of treatment were administered instead of two cycles. […]

For the next experiment, the system named is human tissues. The experiment in a line: Immunohistochemistry of human tissues, overall. In kind it is binding. From the text:
Thus, the NPC-1 epitope is expressed by colon and pancreatic tumor cells but not normal colon or pancreatic […] cells. Therefore, the NPC-1 epitope may be used as a tumor-specific marker or a therapeutic target for colon and pancreatic cancer. Further, peptidomimetics of the NPC-1 epitope (e.g., the polypeptide of SEQ ID NO: 1-24) as described herein may be used in the detection and treatment of cancer (e.g., colon, pancreas, breast, lung, ovarian, stomach, esophageal).

In the next experiment the test system is DU145 (Prostate). As to the kind of experiment: ADCC 4-hour 111-Indium release assay. In kind it is cell-based, human.
Another experiment concerns the target T1, MUC5AC long construct (Homo sapiens, UniProt P98088, DEL3501-3501/G3481S/I3234V).
T1 construct: expressed in transfected cells; host or cells: CHO cells, transient/clonal plasmid transfection
T1 sequence (P98088 with tags, fused parts or gaps I3234V/G3481S/DEL3501-3501): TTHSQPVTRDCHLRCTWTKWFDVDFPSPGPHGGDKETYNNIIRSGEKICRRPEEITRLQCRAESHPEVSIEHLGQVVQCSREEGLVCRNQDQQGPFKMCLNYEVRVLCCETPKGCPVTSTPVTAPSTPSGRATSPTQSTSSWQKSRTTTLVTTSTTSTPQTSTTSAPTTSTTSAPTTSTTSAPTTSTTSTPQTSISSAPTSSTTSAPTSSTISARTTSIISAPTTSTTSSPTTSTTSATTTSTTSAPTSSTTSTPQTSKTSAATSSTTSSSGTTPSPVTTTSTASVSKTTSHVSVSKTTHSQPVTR
The experiment in a line: Immunofluorescence of transfected CHO cells. In kind it is cell-based. Particulars: different plasmid clones of the MUC5AC long construct. The text has this:
(§1) An exemplary amino acid sequence of MUC5AC is presented in SEQ ID NO: 36 with an exemplary nucleic acid sequence encoding MUC5AC presented in SEQ ID NO: 37. Therefore, a recombinant expression plasmid was designed and constructed that encoded residues upstream of tandem repeat units and two tandem repeat units (“MUC5AC-long” SEQ ID NO: 38 with the corresponding nucleic acid sequence of SEQ ID NO: 39). The MUC5AC long peptide corresponds to amino acid residues 2636 to 2942 of the MUC5AC protein (SEQ ID NO: 36). A second expression plasmid was designed and constructed that encoded primarily a short domain which connects to the central repetitive region and only a portion of the tandem repeat residues (“MUC5AC-short” SEQ ID NO: 40 with the nucleic acid encoding it in SEQ ID NO: 41). The MUC5AC short peptide corresponds to amino acid residues 2636 to 2763 of the MUC5AC protein (SEQ ID NO: 36). These smaller fragments of the large MUC5AC molecule were predicted to comprise NEO-101 antibody binding regions that contain the NPC-1 epitope(s).
(§2) The DNA sequences that contained NEO-101 antibody binding regions, based on the amino acid sequence, were back-translated to nucleic acid sequence and the DNAs were synthesized by methods well-known in the art. […]

A further experiment deals with T2, MUC5AC short construct (Homo sapiens, UniProt P98088, I3234V).
T2 construct: expressed in transfected cells; host or cells: CHO cells, transient/clonal plasmid transfection
T2 sequence (P98088 3212-3339 I3234V): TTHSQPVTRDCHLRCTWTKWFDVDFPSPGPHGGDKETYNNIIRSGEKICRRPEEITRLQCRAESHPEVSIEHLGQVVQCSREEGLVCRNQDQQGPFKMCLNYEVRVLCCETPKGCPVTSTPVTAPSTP
The experiment in a line: Immunofluorescence of transfected CHO cells. Format: cell-based. To be noted: different plasmid clones of the MUC5AC short construct.
Description: as §1, §2

The next experiment concerns lung tumor tissue. As to the kind of experiment: Immunohistochemistry of lung tumor tissue. In kind it is binding. To be noted: 10 μg/ml biotinylated antibody. How it is done: Slides were deparaffinized, rehydrated and antigen retrieval was performed. Slides were then stained with 10 μg/ml biotinylated NEO-101 antibody and then streptavidin-HRP was applied for color development. Slides were counter stained with H.E., hydrated and fixed. The results
The specificity of NEO-101 for pancreatic and colorectal tumor tissue was further shown by staining lung tumor tissue. While there was significant binding to these tissues with a commercial antibody that recognizes normal MUC5AC, there was no reactivity of NEO-101 with these lung tumor tissues.

B1: NEO-101: Chimeric NEO-101 antibody, engineered in CHO-DG44 production cell clone 4B7; targets a variant of MUC5AC (protein)
light: QVVLTQSPVIMSASPGEKVTMTCSASSSISYMYWYQQKPGTSPKRWIYDTSKLASGVPARFSGSGSGTSYSLTISNMEAGDAATYYCHQRDSYPWTFGGGTNLEIK
heavy: QVQLKESGPDLVAPSQSLSITCTVSGFSLSKFGVNWVRQPPGKGLEWLGVIWGDGSTSYNSGLISRLSISKENSKSQVFLKLNSLQADDTATYYCVKPGGDYWGHGTSVTVSS
Turning to B1, the “tumor growth versus human IgG control” value in experiment [1] (four cycles, with PBMCs, significant from Day 18 (P=0.0044)) was “very similar growth inhibition”. Besides, in experiment [1] (two cycles, with IL-2-activated human PBMCs, significant from day 13 (P=0.0072)), the “tumor growth versus control groups” value is “Tumor growth inhibition was observed”. The “cross-reactivity in other normal human tissues stained” value in the experiment on human tissues is recorded as “no cross-reactivity”. Further, the “% Specific Killing (±SEM)” value in the experiment on DU145 (Prostate) (Effector:Target 12.5:1) was −0.3 ± 0.1%; in the experiment on DU145 (Prostate) (Effector:Target 25:1) it was 0.3 ± 0.8%; in the experiment with DU145 (Prostate) (Effector:Target 50:1), −0.5 ± 0.3%. The “CHO cells bound by antibody” value in the experiment with MUC5AC long construct is listed as 76%-88%; with MUC5AC short construct it was 11%-80%. Further, the “reactivity with lung tumor tissues” value in the experiment with lung tumor tissue is listed as “no reactivity”.

These data come from US11078245B2, “Colon and pancreas cancer peptidomimetics” (PRECISION BIOLOGICS, INC., priority 2010, dated 2021).
